The results in this text go back to the domain aggregation screens of Martell et al. (2025).

This data set in a line: soluble fraction after stress (log2 fold change); higher = more stays soluble; pooled small domains, quantitative proteomics. The note with it: stress: pH 4. The method, boiled down: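 Pooled custom libraries of small protein domains were stressed at pH 4 and then measured by high-throughput quantitative proteomics. The fold change in the amount of each domain that stays soluble after the acid stress serves as a measure of aggregation propensity. Fold changes are given on a log2 scale, and higher values mean more of the domain stayed soluble.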
On to “HMAMSAGEVVERIREHVGHPATIKELMRVLAIPNEERYRFRRRIKQLVEAGELIRIRGNRYGLADR”, for which the “soluble fraction (log2)” value was ≥ 0.43.
The result for “HMAMTITKIEKTSQQKIYYFTDSGRVFKKMSDRSATIAVDDRVELEGGVLGSKFFVTANGSRVKVKEV” reads 0.0344; that for “HMAMYSREKLKKLREDRGLTQYELAKIAGISVVTLNKIESSDSAKPFVKTLNKIAQALGVGIDELS”, ≥ 0.43.
The result for “HMAMYYVIGGDGQQYGPIDEATVRGWLGEGRVSAASLSFKTGEAQWIPLRDRPELADVLATA” reads -0.311.
As for “HMANKLSEQIYGSILKDIVNGVYAPREFISEAQIAAKYGVSKAPVKEAMHILASEGFLLSYPKRGYMVN”, the “soluble fraction (log2)” value is 0.109.
Consider “HMANKQLQEKLKNYISENGSLSSAAKAIGLSPATLSTYLKDKYEGNVANVETRLTEIFETVEAANNLL”, for which the “soluble fraction (log2)” value was -0.313.
Take “HMANKTISMTTLKLVIQQLSKGISRQSISAQYHISRNTIKKYEKRIKAMDMKIEDILKLSDEEISNLLQ”: the “soluble fraction (log2)” value is -0.273.
Turning to “HMANLNFDMSQIVASRYQEKAAELGVTAPSLARTDYNTQEQATYEFVAREIIADYYDDRVAPFNDLIPE”, the “soluble fraction (log2)” value was -0.967.
In the case of “HMANNPISMIKIRQILRLHIQGRSKLQIAAQTGISRNTLKKYLKEFEASKLTYDEISELSDKDLEDLFIK”, the “soluble fraction (log2)” value came to 0.225.
“HMANTSAVIKQPGLVKLFAQHFVRNGFNAMKAAEAAGFVRPSPTFVRNLADSKPVKDAISELLGPYNDA”: the “soluble fraction (log2)” value came out at 0.22.
On to “HMANWRVGQTINALVSDRMPSGGLLLTVGRQSFVTTRDIPVQPGARIMLEVQQVEPKLVLRLVSA”, for which the “soluble fraction (log2)” value is -0.236.
Consider “HMAPADLSPEERVVLDALALEPVHVDALAAKLGRRSEELLTSLTLMEMRGLAVAHAGSRYSRATMT”, for which the “soluble fraction (log2)” value is -0.934.
With “HMAPEEIPLDRVVRLVEQGRVESIVVTGERLEVTLQNGTVYGSTKENGVGFMETLDRYQVPLEQRDFSYEV”, the “soluble fraction (log2)” value is -0.72.
For the sequence “HMAPELRSDAQMRRLWALAKENGLDEVGFRAFISDATGREVESTKSLTATEAHRLIEELEAP”, the “soluble fraction (log2)” value is -0.758.
“HMAPEPFIVQITASSLNVRKGPGTSYAVAQTVSKGQVFTIVQQQGGWGKLKSGAGWISLKYTAR”: the “soluble fraction (log2)” value is -0.0269.
For the sequence “HMAPEQWYVLTSGQLPKGPYRLRHIVAMSKGDNWLVARKGAEQWTPLRHLPEFRQAQEANEYIQAIS”, the “soluble fraction (log2)” value is -0.122.
For the sequence “HMAPFSGVEPREWDSLVERGRQSGEVHAEDVTHVLRHVELTGDVLTDVQSKMAEHGITIDDA”, the “soluble fraction (log2)” value was -0.0344.
With “HMAPGASEVPDLTSLPAREALLRLTKLGLLPEMEGTGRLVRQQPAAGTRVPKGSKVHLVFEPG”, the “soluble fraction (log2)” value was determined as 0.0438.
The result for “HMAPIEVPYNVFRQQVVEGNVESVATRADTVQGYFETPVTLPARPDAAAAEPVTVERFSTTLPSF” reads 0.00217; that for “HMAPKRIVLRFGKDISDKPIIYYLVKDYDLVINILKANVNPNKEGTLVLELSGENYDKGIEFLISQGVTVQ”, -1.33; that for “HMAPKVHLLKVPVDKIREIIGTGGKVIRQITEETGAKIDISDDGSVKVSSPDQSSIDAATTWITGIIAE”, -0.102.
In the case of “HMAPLATLEAGEDGSVKLPNLAGHSIREVAAALGGAKLSLIPIGSGTSWKQTPAPGAVLHSGDTVTVYF”, the “soluble fraction (log2)” value came to 0.0923.
As for “HMAPNDELTRQVISVLSGTPQQAFNYKQISKKLNINDSSERRMVSNILRELAGKGEIVEVYQGKYRSKAPA”, the “soluble fraction (log2)” value amounted to 0.116.
Consider “HMAPPTAEFFAHLPAEALSAVRRSVEEGNARGIDEAILRVETLDGEAGRVLRGLAARYEYGRILELTQR”, for which the “soluble fraction (log2)” value was -0.0842.
The value for “HMAPQSAAAILRYLSSGAIRGVGPATAQRIVERFGTDSLEIIQNRPKELAAINGISINKALSISEEYAKQY” was -0.0357; that for “HMAPREELIAIHEALDKLEREDPQVSQLVKLRYFVGMTMAEAADAMDLKKRAAEALWTYGKAWLHREIKKN” was -0.576; that for “HMAPRIVTIQIPVDKIRDVIGPGGKVIRSIIERTGVKIDVEDDGRVNVASADGDSAQRAIAIIQELTAT” was -0.0595.
In the case of “HMAPSIPSGADIRAAREAAGINLRDFARIVDGPGIAIWSRYETGTPIRVKSISPEVWQKVRDFISQHG”, the “soluble fraction (log2)” value turned out to be 0.228.
As to “HMAPTADSVPFVIRSVVGGAQPFIVLEDGSKLLVGGVYRKYRLVAVENTRIIFEGPRTAIVT”, the “soluble fraction (log2)” value was -0.681.
Consider “HMAPTPAGNLRSLKSEIVNYTRQSSTAYVYTFKDLSSGELYTARASRYYAAAGDTAYISTAAGAITDM”, for which the “soluble fraction (log2)” value was -0.0513.
With “HMAPTVPEVVRLEEGAARSAIEAAGLSVGSVEFRASSDPAGTVLATRPIAGRKVRPSSAVDLVLSDGRTP”, the “soluble fraction (log2)” value is 0.0751.
The value for “HMAPVEEWAKASVMEDPTLVTETMARIFAQQGQIGKARKAYRHLALTYPAKSTYFAAQLKKLNQR” was 0.355; that for “HMAPVLTATVNTTSGKLNMRAAASATSAKLTSIPRGATVTVLEKGTTWSRISYGGYTGYVMTQYLKFD” was -0.575.
With “HMAPVVELEDVTIVRGKATLLDRVNWVIDETDRWVIVGPNGAGKTTLLQVVSANLHPTSGKAMILDEVL”, the “soluble fraction (log2)” value was -0.366.
As to “HMAQILEPSVALKKLLELKQAGFEDETLVGWIRKVEFTRPLTPDDLLEWKGAGISQAVIRAAM”, the “soluble fraction (log2)” value stood at 0.00449.
With “HMAQISDEGLLRGLIVEMFEANPAVVEELLGGRDRKKGFVIGQIMKKTKGMANPALLDQLFYEELEKL”, the “soluble fraction (log2)” value was -1.31.
Consider “HMAQTEIPYSEFLREVGNGQIKSVIIEGSEITGFYKTSGTSFNVVAPDDPKLVERLMDQGVEVRAQPT”, for which the “soluble fraction (log2)” value is 0.193.
Turning to “HMAQVVMPNVVGKTEKDATATLEGKNLKVNVEYNLDATSDDGIVKEQSIKSGENIDEGTEITLKVNKV”, the “soluble fraction (log2)” value was -1.69.
On to “HMAQWGFNGSEAGDLSFQQGDVIEVVEKVKDDWWRGRVLGSTEIGLFPS”, for which the “soluble fraction (log2)” value is -1.64.
Consider “HMARDDVIRLVQLSLDHLPAKYADALEWKYVEGLSTKEIAARLELGSEAAESLLARARRAFKNDFQEIFES”, for which the “soluble fraction (log2)” value is -0.47.
Take “HMAREFPGTIIKRGSRGPDVRWIQQHIGVKLVDGVFGRGTERAVKQFQSRRRLKADGIVGRQTWAAIHN”: the “soluble fraction (log2)” value was ≥ 0.43.
With “HMARGATELPYSQLLDRVEAGEITTATTQGNTLLSTARDGKRYITYLPLDTMDEVVPRLDAANVEVKTER”, the “soluble fraction (log2)” value is -0.123.
The result for “HMARGLRPVPSVFGLDVRQATRTLYAAGFQVSIARGSDVRTRPAAGTLLRVGSTVQLEMPRMESA” reads -0.000244; that for “HMARGTRTRAKLLAAAEVVFARYGYTEASIERITEEAGVGQGTFYLYFASKLEIFEELVDDLNR”, -1.07.
Take “HMARLEELSNGSIVEGLLSGEAVTVVSTKWYGSSSMEVFYKTNRGSTGSQILYREDEPSLTVLEKS”: the “soluble fraction (log2)” value is -0.425.
In the case of “HMARPLHVDALIHLGTEIGSRVGGAHAGPHLLVAGHSPMSELVYARLLGIPTLGWMRGQLTFVNLSK”, the “soluble fraction (log2)” value turned out to be 0.108.
The result for “HMARSKSRQSSVLESVPGLGPSRRRNLLRHFGGLQGVVKAGVEDLMAVRGISRTLAETVYDHLHPGS” reads 0.22.
Consider “HMARTIINLPLRNSVDESYNTTVNILQANGFKEVSYNGETVWKKGTGLLTAMQYIKIEFTDTTLVVSGWVQ”, for which the “soluble fraction (log2)” value was -0.11.
In the case of “HMARTLSVTVSENYANMRLDSFLFESGLYPSRSKAVKQIESGKVFVNGNEPTKKTIVVANDFIVYEEYAEE”, the “soluble fraction (log2)” value was -1.15.
Turning to “HMARTTIATPWDKINDLLQGGLGNGDFGLIFGNPGGGKSWSLVALGGFAVKLGYNVIHYTLE”, the “soluble fraction (log2)” value is -1.35.
